Assay results: article PMC9482650, “Quantitative fragmentomics allow affinity mapping of interactomes” (Nature Communications, 2022)

Legend:
Assay in all cases: holdup assay
Design in all cases: key: below the threshold = too weak to quantify, mostly under pKd 3.1 to 4
[1] = molecular target: LNX1_2, Q8TBB1
[2] = molecular target: GRIP2_4, Q9C0E4
[3] = molecular target: PARD3_3, Q8TEW0
[4] = molecular target: IL16_4, Q14005
[5] = molecular target: T1, APBA3_1, O96018
T1 sequence (O96018 389-490, limits assumed, looked up): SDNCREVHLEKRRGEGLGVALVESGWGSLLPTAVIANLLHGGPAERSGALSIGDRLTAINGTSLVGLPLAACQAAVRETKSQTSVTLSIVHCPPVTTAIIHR

[6] = molecular target: MAGI3_2, Q5TCQ9
[7] = molecular target: GRID2IP_2, A4D2P6; conditions: plain residues with an end cap or a label only (N-terminal biotin on a linker: ttds)
[8] = molecular target: FRMPD3, Q5JV73
[9] = molecular target: T2, LNX2_3, Q8N448
T2 sequence (Q8N448 463-564, limits assumed, looked up): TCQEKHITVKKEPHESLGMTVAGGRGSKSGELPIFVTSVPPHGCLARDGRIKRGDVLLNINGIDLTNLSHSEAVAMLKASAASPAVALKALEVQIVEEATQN

[10] = molecular target: PTPN3, P26045
[11] = molecular target: DLG4_2, P78352
[12] = molecular target: NHERF4_4, Q86UT5
[13] = molecular target: SCRIB_1, Q14160
[14] = molecular target: T3, GRIP1_4, Q9Y3R0
T3 sequence (Q9Y3R0 467-571, limits assumed, looked up): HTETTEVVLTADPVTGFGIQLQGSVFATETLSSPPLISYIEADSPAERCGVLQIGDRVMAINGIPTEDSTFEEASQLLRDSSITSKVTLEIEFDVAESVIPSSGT

[15] = molecular target: T4, DFNB31_1, Q9P202
T4 sequence (Q9P202 135-233, limits assumed, looked up): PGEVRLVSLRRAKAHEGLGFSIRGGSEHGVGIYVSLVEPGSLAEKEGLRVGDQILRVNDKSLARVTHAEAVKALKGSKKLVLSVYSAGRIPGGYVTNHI

[16] = molecular target: T5, ARHGEF11, O15085; conditions: plain residues with an end cap or a label only (N-terminal biotin on a linker: ttds)
T5 sequence (O15085 42-136, limits assumed, looked up): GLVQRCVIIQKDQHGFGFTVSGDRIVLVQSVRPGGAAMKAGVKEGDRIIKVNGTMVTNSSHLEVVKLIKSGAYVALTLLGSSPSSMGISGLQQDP

[17] = molecular target: MAGI1_1, Q96QZ7
[18] = molecular target: TJP2_1, Q9UDY2
[19] = molecular target: T6, HTRA3, P83110
T6 sequence (P83110 354-453, limits assumed, looked up): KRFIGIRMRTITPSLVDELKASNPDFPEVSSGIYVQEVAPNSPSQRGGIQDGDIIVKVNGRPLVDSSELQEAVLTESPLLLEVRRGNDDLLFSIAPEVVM

[20] = molecular target: T7, LRRC7, Q96NW7
T7 sequence (Q96NW7 1440-1537, limits assumed, looked up): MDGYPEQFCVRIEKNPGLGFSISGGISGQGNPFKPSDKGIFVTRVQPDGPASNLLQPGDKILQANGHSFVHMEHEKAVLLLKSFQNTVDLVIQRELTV

[21] = molecular target: MAST2, Q6P0Q8
[22] = molecular target: T8, DLG3_1, Q92796
T8 sequence (Q92796 125-227, limits assumed, looked up): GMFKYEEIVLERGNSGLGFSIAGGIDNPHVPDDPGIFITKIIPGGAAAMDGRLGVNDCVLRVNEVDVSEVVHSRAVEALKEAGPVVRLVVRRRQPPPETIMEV

[23] = molecular target: T9, PDZD2_2, O15018
T9 sequence (O15018 329-429, limits assumed, looked up): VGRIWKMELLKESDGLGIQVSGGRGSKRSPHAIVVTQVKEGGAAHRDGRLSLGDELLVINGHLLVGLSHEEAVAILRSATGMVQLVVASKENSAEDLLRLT

[24] = molecular target: SNX27, Q96L92
[25] = molecular target: GRIP2_6, Q9C0E4
[26] = molecular target: T10, SYNJ2BP, P57105; conditions: plain residues with an end cap or a label only (N-terminal biotin on a linker: ttds)
T10 sequence (P57105 8-110, limits assumed, looked up): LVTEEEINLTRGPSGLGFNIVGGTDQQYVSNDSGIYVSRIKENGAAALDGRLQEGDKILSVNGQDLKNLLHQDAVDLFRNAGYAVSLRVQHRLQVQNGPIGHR

[27] = molecular target: IL16_1, Q14005; conditions: plain residues with an end cap or a label only (N-terminal biotin on a linker: ttds)
[28] = plain residues with an end cap or a label only (N-terminal biotin on a linker: ttds)
[29] = plain residues with an end cap or a label only (N-terminal biotin on a linker: ahx)

PTPN3, P26045, sequence (P26045 505-587): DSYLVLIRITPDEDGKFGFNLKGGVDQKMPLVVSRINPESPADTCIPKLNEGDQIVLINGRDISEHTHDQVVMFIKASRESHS
MAGI3_2, Q5TCQ9, sequence (Q5TCQ9 398-503): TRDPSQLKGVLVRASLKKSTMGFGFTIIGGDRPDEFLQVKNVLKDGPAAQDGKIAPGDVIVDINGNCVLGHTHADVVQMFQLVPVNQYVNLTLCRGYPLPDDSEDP
GRIP2_4, Q9C0E4, sequence (Q9C0E4 446-548): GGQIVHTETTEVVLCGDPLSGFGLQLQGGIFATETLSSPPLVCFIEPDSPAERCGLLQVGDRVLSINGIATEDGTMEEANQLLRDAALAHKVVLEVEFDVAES
MAST2, Q6P0Q8, sequence (Q6P0Q8 1099-1202): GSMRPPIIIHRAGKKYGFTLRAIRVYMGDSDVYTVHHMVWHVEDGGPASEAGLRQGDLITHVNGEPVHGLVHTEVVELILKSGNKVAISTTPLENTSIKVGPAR
IL16_4, Q14005, sequence (Q14005 1229-1329): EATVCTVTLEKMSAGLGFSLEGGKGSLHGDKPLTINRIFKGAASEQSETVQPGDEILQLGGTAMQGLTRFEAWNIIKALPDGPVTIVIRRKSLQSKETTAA
TJP2_1, Q9UDY2, sequence (Q9UDY2 24-128): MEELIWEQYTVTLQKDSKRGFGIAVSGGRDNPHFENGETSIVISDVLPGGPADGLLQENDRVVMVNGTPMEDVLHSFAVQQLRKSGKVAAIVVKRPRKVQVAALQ
SCRIB_1, Q14160, sequence (Q14160 718-814): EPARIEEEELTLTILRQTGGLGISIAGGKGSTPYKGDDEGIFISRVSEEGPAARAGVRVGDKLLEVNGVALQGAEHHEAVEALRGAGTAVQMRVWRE
MAGI1_1, Q96QZ7, sequence (Q96QZ7 1-106): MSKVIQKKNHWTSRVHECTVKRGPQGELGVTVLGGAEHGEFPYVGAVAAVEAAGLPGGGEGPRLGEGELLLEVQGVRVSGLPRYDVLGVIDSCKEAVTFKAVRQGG
GRIP2_6, Q9C0E4, sequence (Q9C0E4 648-740): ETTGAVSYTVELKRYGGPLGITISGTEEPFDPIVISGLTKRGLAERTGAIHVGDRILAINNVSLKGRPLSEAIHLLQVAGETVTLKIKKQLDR
PARD3_3, Q8TEW0, sequence (Q8TEW0 582-685): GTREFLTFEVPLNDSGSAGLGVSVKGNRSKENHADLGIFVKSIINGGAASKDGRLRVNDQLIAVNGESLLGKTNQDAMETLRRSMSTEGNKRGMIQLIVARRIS
FRMPD3, Q5JV73, sequence (Q5JV73 12-100): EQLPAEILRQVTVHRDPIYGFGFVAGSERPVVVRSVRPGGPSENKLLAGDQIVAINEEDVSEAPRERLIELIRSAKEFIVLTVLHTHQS
DLG4_2, P78352, sequence (P78352 155-259): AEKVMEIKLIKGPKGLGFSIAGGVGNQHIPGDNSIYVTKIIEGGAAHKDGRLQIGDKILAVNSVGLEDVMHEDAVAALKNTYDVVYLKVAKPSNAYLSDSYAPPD
LNX1_2, Q8TBB1, sequence (Q8TBB1 371-470): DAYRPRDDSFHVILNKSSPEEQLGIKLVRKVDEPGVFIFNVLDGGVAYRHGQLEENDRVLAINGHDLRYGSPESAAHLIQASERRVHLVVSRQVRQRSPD
NHERF4_4, Q86UT5, sequence (Q86UT5 464-550): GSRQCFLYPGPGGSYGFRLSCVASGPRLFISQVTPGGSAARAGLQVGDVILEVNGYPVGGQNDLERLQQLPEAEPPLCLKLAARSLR
GRID2IP_2, A4D2P6, sequence (A4D2P6 272-370): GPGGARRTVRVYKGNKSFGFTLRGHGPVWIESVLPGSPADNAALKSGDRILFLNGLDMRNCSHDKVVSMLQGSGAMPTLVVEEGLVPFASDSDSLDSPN
IL16_1, Q14005, sequence (Q14005 210-306): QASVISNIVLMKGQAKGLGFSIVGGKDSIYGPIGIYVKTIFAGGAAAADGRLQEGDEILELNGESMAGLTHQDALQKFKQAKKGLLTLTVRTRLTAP

B1: PTEN, P60484 (peptide)
chain: DEDQHTQITKV
- pKd [1, 28]: 3.77
- pKd [2, 28]: below the threshold
- pKd [3, 28]: 3.55
- pKd [4, 28]: 3.5
- pKd [5, 28]: below the threshold
- pKd [6, 28]: 4.03
- pKd [7]: 4.03
- pKd [8, 28]: below the threshold
- pKd [9, 28]: below the threshold
- pKd [10, 28]: 3.94
- pKd [11, 28]: 3.67
- pKd [12, 28]: below the threshold
- pKd [13, 28]: 4.83
- pKd [14, 28]: below the threshold
- pKd [15, 28]: 3.86
- pKd [16]: 4.33
- pKd [17, 28]: below the threshold
- pKd [18, 28]: below the threshold
- pKd [19, 28]: below the threshold
- pKd [20, 28]: below the threshold
- pKd [21, 28]: 5.24
- pKd [22, 28]: below the threshold
- pKd [23, 28]: 3.71
- pKd [24, 28]: 4.89
- pKd [25, 28]: 3.49
- pKd [26]: 3.65

B2: PDLIM7, Q9NR12;Q9NR12-1 (peptide)
chain: LCKSHAFSHV
- pKd [1, 29]: below the threshold
- pKd [2, 29]: below the threshold
- pKd [3, 29]: below the threshold
- pKd [4, 29]: below the threshold
- pKd [5, 29]: below the threshold
- pKd [6, 29]: 4.3
- pKd [8, 29]: below the threshold
- pKd [9, 29]: below the threshold
- pKd [10, 29]: below the threshold
- pKd [11, 29]: 3.49
- pKd [12, 29]: below the threshold
- pKd [13, 29]: below the threshold
- pKd [14, 29]: below the threshold
- pKd [15, 29]: below the threshold
- pKd [17, 29]: below the threshold
- pKd [18, 29]: 4.09
- pKd [19, 29]: below the threshold
- pKd [20, 29]: below the threshold
- pKd [21, 29]: 4.21
- pKd [22, 29]: below the threshold
- pKd [23, 29]: 4.54
- pKd [24, 29]: below the threshold
- pKd [25, 29]: below the threshold

B3: KCNA5, P22460 (peptide)
chain: CLDTSRETDL
- pKd [1, 28]: below the threshold
- pKd [2, 28]: below the threshold
- pKd [3, 28]: 3.48
- pKd [4, 28]: below the threshold
- pKd [5, 28]: below the threshold
- pKd [6, 28]: below the threshold
- pKd [7]: 3.7
- pKd [8, 28]: below the threshold
- pKd [9, 28]: below the threshold
- pKd [10, 28]: 4.92
- pKd [11, 28]: 4.43
- pKd [12, 28]: below the threshold
- pKd [13, 28]: 4.76
- pKd [14, 28]: below the threshold
- pKd [15, 28]: 3.84
- pKd [16]: 4
- pKd [17, 28]: below the threshold
- pKd [18, 28]: below the threshold
- pKd [19, 28]: below the threshold
- pKd [20, 28]: 3.68
- pKd [21, 28]: 5.52
- pKd [22, 28]: 3.49
- pKd [23, 28]: 3.59
- pKd [24, 28]: 4.44
- pKd [27]: 3.5
- pKd [25, 28]: 3.54
- pKd [26]: 4.2
